Data from patent US11732249 (WASHINGTON UNIVERSITY, dated 2023).

Molecular target: T1, soluble bovine cation-independent mannose 6-phosphate receptor (CI-MPR), covalently conjugated to Cyanogen … (bovine, UniProt P08169 45-2313, limits assumed, covalently conjugated to Cyanogen bromide-activated-Sepharose 4B)
T1 construct: also called immobilized CI-MPR
Assay: CI-MPR-affinity bead pull-down from lysates of GNPTAB-/- HeLa cells transfected with empty vector, WT α/β precursor or DS1 mutant; western blot (FIG. 2C)
Method: (FIG. 2C) Western blot of GNPTAB^{-/-} HeLa cells co-transfected with the expression plasmids for the indicated proteins along with empty vector, WT α/β precursor or the DS1 mutant cDNA. Cell lysates were incubated with CI-MPR-affinity beads and the binding of the various proteins was determined by probing the blot with the following antibodies: Renin—anti-HA; NPC2, GP, Lamp1 and Lamp2 with antibodies generated against the native protein.

T1 sequence (P08169 45-2313 limits assumed): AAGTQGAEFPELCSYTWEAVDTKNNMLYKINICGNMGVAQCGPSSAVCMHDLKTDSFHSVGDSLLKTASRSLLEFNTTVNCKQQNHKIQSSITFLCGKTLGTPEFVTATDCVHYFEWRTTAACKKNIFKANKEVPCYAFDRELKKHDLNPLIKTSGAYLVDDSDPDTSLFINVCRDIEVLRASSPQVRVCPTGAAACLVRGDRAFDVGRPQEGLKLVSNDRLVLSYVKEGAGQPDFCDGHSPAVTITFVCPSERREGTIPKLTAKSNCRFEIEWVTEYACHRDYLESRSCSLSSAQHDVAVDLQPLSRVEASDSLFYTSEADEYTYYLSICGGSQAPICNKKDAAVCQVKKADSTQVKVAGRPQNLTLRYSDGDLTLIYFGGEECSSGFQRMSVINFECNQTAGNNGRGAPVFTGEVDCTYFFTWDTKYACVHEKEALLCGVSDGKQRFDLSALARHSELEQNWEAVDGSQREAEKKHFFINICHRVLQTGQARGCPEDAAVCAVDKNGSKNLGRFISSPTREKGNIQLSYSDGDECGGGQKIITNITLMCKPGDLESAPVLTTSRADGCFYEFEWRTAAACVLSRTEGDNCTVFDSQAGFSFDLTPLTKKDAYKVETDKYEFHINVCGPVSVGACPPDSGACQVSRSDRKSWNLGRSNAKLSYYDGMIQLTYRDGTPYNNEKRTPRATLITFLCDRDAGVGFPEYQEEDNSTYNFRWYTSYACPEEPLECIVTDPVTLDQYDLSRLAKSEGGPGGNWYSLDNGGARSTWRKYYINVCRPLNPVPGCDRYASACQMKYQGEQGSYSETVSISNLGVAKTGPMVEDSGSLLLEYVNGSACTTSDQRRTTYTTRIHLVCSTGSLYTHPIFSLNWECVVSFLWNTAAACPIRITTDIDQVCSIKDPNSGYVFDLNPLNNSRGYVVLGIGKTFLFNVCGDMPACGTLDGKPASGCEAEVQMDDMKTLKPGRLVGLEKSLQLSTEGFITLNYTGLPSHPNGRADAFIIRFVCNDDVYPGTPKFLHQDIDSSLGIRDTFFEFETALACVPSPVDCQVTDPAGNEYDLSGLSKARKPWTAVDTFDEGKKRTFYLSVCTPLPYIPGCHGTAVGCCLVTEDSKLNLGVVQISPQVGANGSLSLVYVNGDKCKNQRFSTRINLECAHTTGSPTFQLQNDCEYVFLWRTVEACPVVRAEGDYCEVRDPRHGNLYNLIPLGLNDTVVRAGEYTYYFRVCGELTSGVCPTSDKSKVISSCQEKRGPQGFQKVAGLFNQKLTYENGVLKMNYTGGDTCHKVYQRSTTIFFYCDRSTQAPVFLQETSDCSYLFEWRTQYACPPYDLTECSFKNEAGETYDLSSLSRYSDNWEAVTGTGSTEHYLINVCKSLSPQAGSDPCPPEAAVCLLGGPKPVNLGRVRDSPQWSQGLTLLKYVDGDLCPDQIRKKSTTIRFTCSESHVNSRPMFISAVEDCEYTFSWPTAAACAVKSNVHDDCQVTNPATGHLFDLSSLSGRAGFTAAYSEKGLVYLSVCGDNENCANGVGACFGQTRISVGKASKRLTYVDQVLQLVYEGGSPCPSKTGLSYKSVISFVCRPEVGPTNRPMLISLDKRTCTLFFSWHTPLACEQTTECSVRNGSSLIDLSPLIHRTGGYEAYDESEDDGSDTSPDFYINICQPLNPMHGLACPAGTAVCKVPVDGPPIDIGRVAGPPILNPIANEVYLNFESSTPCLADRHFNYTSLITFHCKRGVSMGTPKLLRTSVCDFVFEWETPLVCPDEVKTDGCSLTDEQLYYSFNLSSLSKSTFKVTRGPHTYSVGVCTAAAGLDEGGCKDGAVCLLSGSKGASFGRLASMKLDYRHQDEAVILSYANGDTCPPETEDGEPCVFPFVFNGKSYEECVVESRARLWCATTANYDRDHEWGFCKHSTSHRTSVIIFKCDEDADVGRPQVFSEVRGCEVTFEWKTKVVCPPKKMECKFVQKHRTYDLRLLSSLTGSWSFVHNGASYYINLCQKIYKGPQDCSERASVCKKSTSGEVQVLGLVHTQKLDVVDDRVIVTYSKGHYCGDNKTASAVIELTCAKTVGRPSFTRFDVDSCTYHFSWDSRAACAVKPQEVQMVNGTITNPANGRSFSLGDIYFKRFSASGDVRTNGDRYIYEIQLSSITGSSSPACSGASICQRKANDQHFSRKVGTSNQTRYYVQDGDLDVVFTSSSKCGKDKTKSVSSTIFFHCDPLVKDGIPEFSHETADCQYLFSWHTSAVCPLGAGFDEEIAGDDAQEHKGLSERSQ

binding result: no binding
B1: Lamp1 (other, UniProt P11279 29-417, looked up)
chain: AMFMVKNGNGTACIMANFSAAFSVNYDTKSGPKNMTFDLPSDATVVLNRSSCGKENTSDPSLVIAFGRGHTLTLNFTRNATRYSVQLMSFVYNLSDTHLFPNASSKEIKTVESITDIRADIDKKYRCVSGTQVHMNNVTVTLHDATIQAYLSNSSFSRGETRCEQDRPSPTTAPPAPPSPSPSPVPKSPSVDKYNVSGTNGTCLLASMGLQLNLTYERKDNTTVTRLLNINPNKTSASGSCGAHLVTLELHSEGTTVLLFQFGMNASSSRFFLQGIQLNTILPDARDPAFKAANGSLRALQATVGNSYKCNAEEHVRVTKAFSVNIFKVWVQAFKVEGGQFGSVEECLLDENSMLIPIAVGGALAGLVLIVLIAYLVGRKRSHAGYQTI
